{"source": "the DeepSol protein solubility set", "data": [{"test": "soluble on expression in E. coli; label from the status in PepcDB or PDB records", "values": [{"sequence": "MTEMAKGSVTHQQLIALLSQEGANFRVVTHEAVGKCEAVSEIRGTALGQGAKALVCKVKGNGVNQHVLAILAADQQADLSQLASHIGGLRASLASPAEVDELTGCVFGAIPPFSFHPKLKLVADPLLFERFDEIAFNAGMLDKSVILKTADYLRIAQPELVNFRRTA", "soluble on expression in E. coli": "not soluble"}, {"sequence": "MAQGYRRDHNHHHESGYKRPSDPGGDLPSDKRHRPPPAEGRTLSADRRLYERHFPLYKQPLELGCFSLDARRNFFNDHRQLRYYVEPRRSPDFNLRDGYTSRFIKRDDGVKEKLDHMLRWILENRHKMQNSNSSSCALGVDFITWRGHLTKVLTTPYETQEGWMMAACKFRGSIYISEVETEQARENRETRSERQEEMMYWGYKFEQYTCADGADGTPDPGGVVNTNEAFCTVVQTRLADQSQTLRV", "soluble on expression in E. coli": "not soluble"}, {"sequence": "MGSDKIHHHHHHMADLCVNLVPLFDALPQDEKMQIEKLVQHKNYQKGEVIIDPTINDNLVIVADGNAKQYTLDEDGYENVLQILHTGDYIGEDWLFGQKNINNYVEATEHSEICLLKRQDLLKLMHKQPELSIRLLELSIVKVSEMQKQIHLMALPKVEDRLLKYLQTYADEIGKNNFTLPLKMKDLALYLGTTPETLSRKFALLEKQGQLKRQLRRIELFEN", "soluble on expression in E. coli": "not soluble"}, {"sequence": "MAHHHHHHMECGYSNEGKFHQVVLTIKEKIEKHDLSKWKDIVKPEEGPKYDEYFERLLREGNQEKDKNGKDTEGKDTHEKNTHDEGVHGKDDLSAEQVEKTPSHEYQQTEDEENPKKFQLNKEFFDKINNKEKFYFLLNIKEMMETSWLLAQKRLEGIKVEEKSKSVNVQDLLNYSQKIADTTCAPPECDNINDRIMHQEYYPNYHFLNFVNVEEIHLSKLFQLQKYSTVCFPPIITIQEGKDNMLVLHISCSTPHATIYYKVNDETNEQIYNTDEKPKIRKRKKINVYAWSVKNGHIKSRISCISKSYKVEEDDSFSLSDNFPNKDQGEQPSGFSKTGTECNAPGSKPSQITNVFKNLGFLLSRKKEKTEESSSNGDSSSEA", "soluble on expression in E. coli": "not soluble"}, {"sequence": "SLQWECWPSLPCWRCFAASGRITLSIKRFTQNSRRHDMKITKINAIPLSYRLPEGKTVTMGVGSTIKRDAIIIRVETSEGITGYGEAHPGRSPGAITSLIHNTIAPMLIGMKATDCVGAWQRVHRMQLSSHGLGAGAALAISGIDMALWDIRGKAANMPLYELLGGSKRRIPAYAGGIALGYQPKESLAEEAQEYIARGYKALKLRIGDAARVDIERVRHVRKVLGDEVDILTDANTAYTMADARRVLPVLAEIQAGWLEEPFACNDFASYREVAKITPLVPIAAGENHYTRFEFGQMLDAGAVQVWQPDLSKCGGITEGIRIAAMASAYRIPINAHSSATGLNHAATIHFLAATENAGYFEACVSKFNPFRDMFGTSFEIGADGCVEPPDAPGLGIEVDESIFEKYPAVDGPGYVVKF", "soluble on expression in E. coli": "not soluble"}, {"sequence": "MSLTPYEPFRHLDQMRREFDRFFPDFPIDLPNRHLTLSPKMDVHETDHEVILECDIPGLESKEDLQIDVEPRSVRIEGRIKRSKEVHDERFYRREREIGHFRRVVPLPAEVAEDDIRAAYRNGVLEVRMRKRLDDRRRTIDVEFHLEHHHHHH", "soluble on expression in E. coli": "soluble"}, {"sequence": "PLESCVRLHSSSGTTGNPTVMLYTQNDLDNWSKLMARCMSLSGANRHDIFQNIMGYGLFTGGIGFHYGAERLGMLTIPIGPGNSKRQGWFMKHLGVSVVHILPSYAFRLYSHLKEEGVDPKELPLRIAFIGAEPHSEAMRREIERLYGIKAFNSFGLSEMNGPGVAFECQEQSGMHLW", "soluble on expression in E. coli": "not soluble"}, {"sequence": "MGSDKIHHHHHHMFSSQKLKERRKKLGLSQAQTADKLGISRPSYFNWEIGKTKPNQKNLDKLAHLLKVDSAYFLSQHDIVEIYTRLNESNKTKTLKYSQYLLEQQDKERNLMKNKRYPYRVYEKLSAGTGYSYFGDGNFDTVFYDEEIDHDFASWIFGDSMEPIFLNGEVALIKQTGFDYDGAIYAIDWDGQTYIKKVYREETGLRLVSLNKKYADKFAPYDENPRIIGLIVGNFIPLEG", "soluble on expression in E. coli": "not soluble"}, {"sequence": "MGSDKIHHHHHHMNVTDLPQACISLIENVPGIDFIDEDFAIFDNIDDIPSLDHPMRIDAVVFALCTKGFMRIRINMEEYVVGENHLVLSLPDQIIQHVERSEDVAGIFIVISKNFMEEIIPHIQNTLPAFFYIKEHPVTELNAEEIGCIKEYHSFLWKKVKAKRHPYRKEIAQSLLLAVFHEVYGMFKNHMPIEVKKSRQEELFAAFIQTLALHHKQERSVAFYAGKLCVTPKYLSLLVKNVSNRTAGEWIDNYVVLEAKALLSSSTLSIQEISDRLNFTNQSFFGKYFKQHVGISPTEYRKKW", "soluble on expression in E. coli": "not soluble"}, {"sequence": "AFINAHTHFEFSNNKASFDYGSFSGWLGSVLNNGGAILENCQGAIQNAISTQLKSGVGSVGAISNHLIEVNLLKESPLNAVVFLEFLGSSYSLEKLKAFEAKFKELKDLEDKKLKAALAVHAPYSVQKDMALSVIQLAKDSQSLLSTHFLESLEELEWVENSKGWFENFYQHFLKESHFKSLYKGANDYIDMFKDTHTLFVHNQFASLEALKRIKSQVKNAFLITCPFSNRLLSGQALDLERTKEAGLSVSVATDGLSSNISLSLLDELRAFLLTHNMPLLELAKIALLGATRHGAKALALNNG", "soluble on expression in E. coli": "not soluble"}, {"sequence": "MGSDKIHHHHHHMSAYPPLNSLRIFEAAARLESFSAAAGELFVTHGAVSKQIKQLEDWLGVQLFERSGGRVRLTDAGWRYLVQVQDGLDLIANATSQLLQPNRQRRLTINSTPTFAAFWLLPRLAGFRSQLPELELHLVTSDRDLSRLDAPFDVAIRRGPGDWPGHIAKPFLKEWELPLCSPALLSRQPLAQAADLTQHTLLHADTRPTAWPRWLTLAGAPELKPACSLHFDKFSLALQAAVDGLGVVLGPLPMAHELIAAGKLVSPLPGPVVTVRDYCWVVPRMSAEDATVATFCRWLEGEAEKAGLSGVESG", "soluble on expression in E. coli": "not soluble"}, {"sequence": "MSLEAIVFDRSEPENVSVKVLDQLLLPYTTKYVPIHTIDDGYSVIKSMQVRGAPAIAIVGSLSVLTEVQLIKHNPTSDVATLYSLVNWESTKTVLNKRLDFLLSSRPTAVNLSNSLVEIKNILKSSSDLKAFDGSLYNYVCELIDEDLANNMKMGDNGAKYLIDVLQKDGFKDEFAVLTICNTGSLATSGYGTALGVIRSLWKDSLAKTDK", "soluble on expression in E. coli": "soluble"}, {"sequence": "DHSARPKLGIDLQGGTRVTLVPQGQNPTEDQLAQAKSILENRVNGMGVSGASVVSDGNTLVITVPGEDTTQARALGQTSQLLFRPVAKPDAPDTTKLLDAMKEMANRWVEVGVLTPQEANDALSNTAKALAQSEGKKPEDAKAPTVTAKEPKEPANSIESEQLRNKVLEVMKKDRQSTDATTQLSASSLLKCDDTPDPLQGTDDPTKPLVACDPSSGQVYVLSPAPLLQGETDQANGKRLTGNEIDTNRPITGGLNPQTGQMEIGFSFKSDNGDQGSATWAKLTQEYLQKQVAITLDSK", "soluble on expression in E. coli": "not soluble"}, {"sequence": "MAVDWPRGGLMPRLRRLEDLLPHIREGRYRLGPHAAKHMLQEGFREQDILSALLWGRELAIYPEDERMLVLGYMVFPPRLRLPLHVVLEYSTPRHVDIVTAFIPREPYRVYSRARLAALLRFDGALEEVRWTGPKHLYPPWD", "soluble on expression in E. coli": "soluble"}, {"sequence": "SPLLLYTCLLWLPTSGLWTVQAMDPNAAYVNMSNHHRGLASANVDFAFSLYKHLVALSPKKNIFISPVSISMALAMLSLGTCGHTRAQLLQGLGFNLTERSETEIHQGFQHLHQLFAKSDTSLEMTMGNALFLDGSLELLESFSADIKHYYESEVLAMNFQDWATASRQINSYVKNKTQGKIVDLFSGLDSPAILVLVNYIFFKGTWTQPFDLASTREENFYVDETTVVKVPMMLQSSTISYLHDAELPCQLVQMNYVGNGTVFFILPDKGKMNTVIAALSRDTINRWSAGLTSSQVDLYIPKVTISGVYDLGDVLEEMGIADLFTNQANFSRITQDAQLKSSKVVHKAVLQLNEEGVDTAGSTGVTLNLTSKPIILRFNQPFIIMIFDHFTWSSLFLARVMNPV", "soluble on expression in E. coli": "soluble"}, {"sequence": "MGSDKIHHHHHHMQEYKACAAHTDILKKYGFKVEKGFANFETAYKASYKKQNGPRIAILAEYDALPKIGHGCGHNAYGVTSIAGGILIKELIQKLDLQGEILVIGTPAEETNGAKVDMAKLGIFNDIDVAMSVHPSGEAHIRSGKSHAMEALQFTFKGKTAHAAASPHEGINALDGVLNLFNSINALRQQILSSARIHGIISNGGEAANIIPDLAIANFYVRAETLEYLKELVKKVKNCAKGAALASDTELEITNYETSFANLVTNKKLMKLYEKNLRTLGVTDIRDKEGLGSTDMGDVSHCCPTIHPYFPLTTRHLVGHTIEFATATIQEEAYKGMKEACLAMALSCLDIFEKPEILKEIKEEFYQTFKK", "soluble on expression in E. coli": "not soluble"}, {"sequence": "MGSDKIHHHHHHMIKELKTLIAVAREGTFAAAGDRIGLTQAAVSAQMQRLEAQLGVELFDRKGRSAQLNRMGQQVLLQGQELVRLYGSLGNSATGSAPNVLVTIGAIASVQRSFLPDALALFHRQFPQCRTRVIPGLSMDLVNQVDAGEVDLAAIIRPPFSLHSDLRWTTLMREPYRLIVPADLQGEDWAELISSQPFIRYDRSSFGGRQVDRFLRQTHVSLREVCELDELDAIVKLVANGVGVALVPETATIQAWPAGVRAVNLGPHTFHRDIGLVHRARRSLTEPVNVLAQLLTAQVQDTQ", "soluble on expression in E. coli": "not soluble"}, {"sequence": "SLKGSSAQVLVVEGEQGLNNDLSHSLEANGYLVTQCFNGKALQKEGLDDQLDLIILGATSESTEADLIQSIVMLREAVSTPIMLLGQKDCVESRIAFYTAGVDDYLTKPVNFSEFLIRVAVILKRVCSDSQMPKHADLLSGLDFEMDKRKGCIRSDEVELLLTPVEFKLLWALVSSGGRVLTKAFLYRNVLNRDFVQHDRSVDVHISRLRAKLSGVGVDTSRLETVHGEGYCYKEG", "soluble on expression in E. coli": "soluble"}, {"sequence": "MGSDKIHHHHHHMTKVAHLTSVHSRYDIRIFRKQCRTLSQYGYDVYLVVADGKGDEVKDGVRIVDVGVLSGRLNRILKTTRKIYEQALALGADVYHFHDPELIPVGLRLKKQGKQVIFDSHEDVPKQLLSKPYMRPFLRRVVAVLFSCYEKYACPKLDAVLTATPHIREKFKNINGNVLDINNFPMLGELDAMVPWASKKTEVCYVGGITSIRGVREVVKSLECLKSSARLNLVGKFSEPEIEKEVRALKGWNSVNEHGQLDREDVRRVLGDSVAGLVTFLPMPNHVDAQPNKMFEYMSSGIPVIASNFPLWREIVEGSNCGICVDPLSPAAIAEAIDYLVSNPCEAAALGRNGQRAVNERYNWDLEGRKLARFYSDLLSKRDSI", "soluble on expression in E. coli": "not soluble"}, {"sequence": "MLSINPNEQTEKDNYKLLTGSIIPRPVAFVTSVTKEGVLNGAPYSYFNIVAANPPLISVSVQRKAGERKDTSRNAIEKGEFVVHISDESYVAAINETAANLPPNESEIELAKLTPIESEVISVPGVKEANIRMECVLERAIPLGGTEDSPACDLLIGRVVRFHVAEHLYEKGRIHAEGLKPISRLAGHNYAKLGEQFELVRPI", "soluble on expression in E. coli": "soluble"}, {"sequence": "MSLINLDVWIDLTNAPHVHYFCQLIKKFEKEGIEYLLTFRDSGNLAKLVEIYNFVGKCIGKHGNTLKDKLIFYAERVIGLTELISNVKPKVAIAKHSVELPRVAFGLNIPVIFVVDNEHAEAQNKLTLPLADEIIKPIATDENKLKEFGGRNFISFEGTCEVANVNSRLKGYYPIDNEILKKLGICDDNPTIVMRPCPNSSYCNGHKDILPKIIEKLQKRIDCNIVVFPRDEHQKEIYREVNAIVPKETIDALSLLYNSDFMIGAGGTMNRESAILGIPTVSCYPQELLGVDKYLIEKDRMIHTNDIKEIINYVEDNLGKRMGVIELEDPTDLMFERVCNYLKEGHHHHHH", "soluble on expression in E. coli": "soluble"}, {"sequence": "MGKTLFEKVWNAHVVTEVKDGPSILYIDKQLIHEVTSPQAFAGIEKRGIGVFRPERTLATPDHNVPTKGQNLPIVEDLSRFQVDKLTENCNKFGVTLYGLGHASQGVVHVVGPETGTTLPGMTIVCGDS", "soluble on expression in E. coli": "not soluble"}]}]}
